From patent US20230192897A1 (NUMAB THERAPEUTICS, published 2023)

Columns and labels:
[1] = biological target: T1, Fc tagged human CD137 (human, UniProt Q07011 24-186); experiment: SPR
T1 construct: also called CD137-Fc chimeric protein
Protocol: (§1) Affinity to PDL1 of the different species was determined by SPR measurements using a Biacore T200 device (GE Healthcare). An antibody specific for the Fc region of human IgGs was immobilized on a sensor chip (CM5 sensor chip, GE Healthcare) by amine-coupling. For all formats, with the exception of the Fc containing Morrison formats, PDL1-Fc chimeric protein from different species were captured by the immobilized antibody.
(§2) Three-fold serial dilutions of the molecules specific for PDL1 (0.12-90 nM) were injected into the flow cells for three minutes and dissociation was monitored for 10 minutes. After each injection cycle, surfaces were regenerated with one injection of a 3 M MgCl₂ solution. The apparent dissociation (kd) and association (kₐ) rate constants and the apparent dissociation equilibrium constant (KD) were calculated using one-to-one Langmuir binding model. Affinity to CD137 of the different species was determined using the identical setup as for PDL1 with the exception that CD137-Fc chimeric protein from different species were captured by the immobilized antibody.

[2] = biological target: T2, Fc tagged human PDL1 (human, UniProt Q9NZQ7 19-239); experiment: SPR
T2 construct: Bought (Sino Biological, cat. 10084-H02H); captured on the SPR chip; also called PDL1-Fc chimeric protein
Protocol: as §1, §2

[3] = biological target: T3, mouse CD137-Fc chimeric protein (mouse, UniProt P20334 24-187, limits assumed); experiment: SPR
T3 sequence (looked up): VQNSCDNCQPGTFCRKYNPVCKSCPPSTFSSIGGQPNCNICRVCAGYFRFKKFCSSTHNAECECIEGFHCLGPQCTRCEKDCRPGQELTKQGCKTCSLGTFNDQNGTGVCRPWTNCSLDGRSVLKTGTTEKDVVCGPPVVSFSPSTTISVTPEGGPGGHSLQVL
Protocol: as §1, §2

[4] = biological target: T4, biotinylated human PDL1 (human, UniProt Q9NZQ7 19-238, limits assumed, biotinylated); experiment: competition ELISA PD-1/PDL1
T4 construct: also called biotinylated PDL1
Protocol: (§3) Plates were blocked for 1 hour at room temperature by adding 300 μl of PBS with i%BSA and 0.2% tween (dilution buffer) to each well. Inhibitors were serially diluted in 3-fold steps to final concentrations ranging from 300 to 0.005 ng/ml in dilution buffer containing 1 ng/ml biotinylated human PDL1. The mixtures were pre-incubated for 1 hour at room temperature under gentle agitation on a rotating mixer (21 rpm) and added to the microplates after 3 wash cycles with 450 μl wash buffer per well. Plates were incubated for 1.5 hours at room temperature under gentle agitation, then 10 ng/ml streptavidin-polyHRP40 was added to each microplate well after three washes with 450 μl of wash buffer per well. After 1 h incubation at RT, plates were washed three times with 450 μl wash buffer and TMB substrate solution was added. The enzymatic reaction was stopped after 6 minutes by addition of 1 M HCl and absorbance was measured at 450 nm using 690 nm as a reference wavelength. For calculation of IC₅₀ values, a four-parameter logistic (4PL) curve fit was performed in Graph Pad Prism using reference subtracted values.

[5] = biological target: T5, CD137 on Jurkat NFkB reporter cells (human, UniProt Q07011 24-255); experiment: cell-based or functional assay
[6] = biological target: T4, biotinylated human PDL1; experiment: competition ELISA B7.1/PDL1
Protocol: as §3, with “1% BSA” for “i%BSA”, “Inhibitors were serially diluted in 3-fold steps to final concentrations ranging from 300 to 0.005 ng/ml in dilution buffer containing 1 ng/ml biotinylated human PDL1.” left out

[7] = biological target: T5, CD137 on Jurkat NFkB reporter cells; experiment: cell-based or functional assay; remark: listed apart in the source
[8] = biological target: human PDL1 on cells (human, UniProt Q9NZQ7 19-290); experiment: cell-based or functional assay
[9] = biological target: T6, human serum albumin (human, UniProt P02768 25-609); experiment: SPR, SA coupled to chip, pH 5.5
T6 construct: Coupled directly to the CM5 chip; also called HSA; human SA
Protocol: Affinity of molecules to serum albumin (SA) of the different species was determined by SPR measurements using a Biacore T200 device (GE Healthcare). SA was directly coupled to a CM5 sensor chip (GE Healthcare) using amine coupling chemistry. […] The assay was run in a 1× PBS-Tween buffer at pH 5.5.

B1: PRO1134 (bispecific antibody)
chain: DIQMTQSPSSLSASVGDAVTITCQASQSINDYLAWYQQKPGKSPKLLIYKASTLASGVPSRFSGSGSGTDFTLTISSLQPEDFATYYCQQGYIITDIDNVFGTGTKVTVLGGGGGSQVQLQESGPGLVKPSETLSLTCKVSGFSFSNSYWICWIRQPPGKGLEWIGCTFVGSSDSTYYANWAKGRVTISVDSSKNQFSLKLSSVTAADTAVYYCARHPSDAVYGYANNLWGQGTLVTVSSGGGGSGGGGSGGGGSGGGGSIQMTQSPSSLSASVGDRVTITCQASQSINNVLAWYQQKPGKAPKLLIYRASTLASGVPSRFSGSGSGTDFTLTISSLQPEDFATYYCQSSYGNYGDFGTGTKVTVLGGGGGSEVQLVESGGGLVQPGGSLRLSCAASGFSFSSGYDMCWVRQAPGKGLEWVGCVVAGSVDITYYASWAKGRFTISRDNSKNTVYLQMNSLRAEDTATYYCARKDAYSDAFNLWGPGTLVTVSS
notes: scDb; also called 38-02-A04 sc01 scDb-i/33-03-G02 sc07 GL VH3 scDb-o
A Kd [1] of 3.4 nM, a koff [1] of 0.00084 s⁻¹ and a kon [1] of 250000 M⁻¹ s⁻¹ were found for B1 in this work. It also gave a koff [2] of 7.6e-05 s⁻¹, a kon [2] of 2.8e+06 M⁻¹ s⁻¹ and a Kd [3] of 420 nM.

B2: PRO1430 (other)
chain: DIQMTQSPSSLSASVGDRVTITCQASQSIGTYLAWYQQKPGKAPKLLIYRAFILASGVPSRFSGSGSGTDFTLTISSLQPEDFATYYCQSNFYSDSTTIGPNAFGTGTKVTVLGGGGGSEVQLVESGGGLVQPGGSLRLSCAASGFSFSNSYWICWVRQAPGKCLEWIGCTFVGSSDSTYYANWAKGRFTISRDNSKNTVYLQMNSLRAEDTAVYYCARHPSDAVYGYANNLWGQGTLVTVSSGGGGSGGGGSGGGGSGGGGSIQMTQSPSSLSASVGDRVTITCQASQSINNVLAWYQQKPGKAPKLLIYRASTLASGVPSRFSGSGSGTDFTLTISSLQPEDFATYYCQSSYGNYGDFGCGTKVTVLGGGGGSQVQLQESGPGLVKPSETLSLTCKVSGFSFNSDYWIYWIRQPPGKGLEWIGSIYGGSSGNTQYASWAQGRVTISVDSSKNQFSLKLSSVTAADTAVYYCARGYVDYGGATDLWGQGTLVTVSSGGGGSGGGGSIQMTQSPSSLSASVGDRVTITCQSSESVYSNNQLSWYQQKPGQPPKLLIYDASDLASGVPSRFSGSGSGTDFTLTISSLQPEDFATYYCAGGFSSSSDTAFGGGTKLTVLGGGGGSGGGGSGGGGSGGGGSEVQLVESGGGLVQPGGSLRLSCAASGFSLSSNAMGWVRQAPGKGLEYIGIISVGGFTYYASWAKGRFTISRDNSKNTVYLQMNSLRAEDTATYFCARDRHGGDSSGAFYLWGQGTLVTVSS
notes: trispecific scDb-scFv; also called 38-02-A04 sc13 scDb-i/37-20-B03 sc01 scDb-o/19-01-H04 sc03 scFv
In the case of B2, the IC50 [4] is reported as 1.92 ng/mL, the “rel. IC50 (IC50 avelumab/IC50 test)” value [4] is reported as 0.73 fold and the “IC50 (ng/ml) (EC50 in Table 16C), NFkB reporter, HCC827 + IFNg, 24 h, +HSA” value [5] is reported as 4.42 ng/mL. The “rel. IC50 (PRO1186/test), 24 h” value [5] was 1.51 fold, the IC50 [6] was 2.42 ng/mL and the “rel. IC50 (IC50 avelumab/IC50 test)” value [6] was 1.15 fold. The “Area under the curve (calculated using PRO885 normalized data), first line (6 h by the order of the upper part)” value [7] was 196, the “Area under the curve (calculated using PRO885 normalized data), second line (24 h by the order of the upper part)” value [7] was 180 and the “EC50 [ng/ml], NF-kB reporter, HCC827 + IFNg, +HSA, 6 h” value [7] was 9.8 ng/mL. The “IC10/EC90 ratio, first line (6 h by the order of the upper part)” value [7] was 72.4, the “IC10/EC90 ratio, second line (24 h by the order of the upper part)” value [7] was 1240 and the “Maximum NF-kB activation (rel. to PRO1186) [%], first line (6 h by the order of the upper part)” value [7] was 110%. The “Maximum NF-kB activation (rel. to PRO1186) [%], second line (24 h by the order of the upper part)” value [7] was 98.6%, the “rel. Area under the curve (AUCsample/AUCPRO1186), first line (6 h by the order of the upper part)” value [7] was 1.03 fold and the “rel. Area under the curve (AUCsample/AUCPRO1186), second line (24 h by the order of the upper part)” value [7] was 0.87 fold. For the same binder, the “rel. EC50 (EC50, PRO1186/EC50, sample), NF-kB reporter, 6 h” value [7] was 1.31 fold, the “rel. EC50 (EC50, PRO1186/EC50, sample), NF-kB reporter, 24 h” value [7] was 1.51 fold and the “rel. IC10/EC90 (ratio of sample/ratio of PRO1186), first line (6 h by the order of the upper part)” value [7] was 0.22 fold. For the same binder, the “rel. IC10/EC90 (ratio of sample/ratio of PRO1186), second line (24 h by the order of the upper part)” value [7] was 3.94 fold, the Kd [1] was 1.5 nM and the koff [1] was 0.00071 s⁻¹. For the same binder, the kon [1] was 460000 M⁻¹ s⁻¹, the Kd [2] was 0.0045 nM and the “IC50 (ng/ml), NF-AT potency assay, +HSA” value [8] was 16.2 ng/mL. For the same binder, the “rel. IC50 (avelumab/test), +HSA” value [8] was 1.45 fold, the Kd [9] was 1 nM and the koff [9] was 0.0003 s⁻¹. For the same binder, the kon [9] was 290000 M⁻¹ s⁻¹.
